We go through one protein from US20030176382.

The target of the series is T1, synthetic peptide substrate ALERTFLSFPT
T1 chain: ALERTFLSFPT

B1: aspartyl proteinase purified from the adult hookworm Necator americanus (protein)
chain: GVYKIPLKRITPPMIKMLRAGTWETYVEGMRKRQLQLLKEHKVHIQDVLGYANMEYLGEITIGTPQQKFLVVLDTGSSNLWVPDDSCYKEKRPDRCLVSNCDAGLVCQVFCPDPKCCEHTREFKQVNACKDKHRFDQKNSNTYVKTNKTWAIAYGTGDARGFFGRDTVRLGAEGKDQLVINDTWFGQAEHIAEFFSNTFLDGILGLAFQELSEGGVAPPIIRAIDLGLLDQPIFTVYFENVGDKEGVYGGVFTWGGLDPDHCEDEVTYEQLTEATYWQFRLKGVSSKNFSSTAGWEAISDTGTSLNGAPRGILRSIARQYNGQYVASQGLYVVDCSKNVTVDVTIGDRNYTMTAKNLVLEIQADICIMAFFEMDMFIGPAWILGDPFIREYCNIHDIEKKRIGFAAVKH
On to B1, for which the “substrate specificity assay (cleavage of a synthetic peptide substrate)” value is listed as “the proteinase cleaved the synthetic peptide substrate ALERTFLSFPT (SEQ ID NO. 7)”.
